Laboratory results taken from the DeepSol protein solubility set.

Assay: soluble on expression in E. coli; label from the status in PepcDB or PDB records

Soluble on expression in E. coli, soluble:
MDFPTISRSPSGPPAMDLEGPRDILVPSEDLTPDSQWDPMPGGPGSLSRMELDESSLQELVQQFEALPGDLVGPSPGGAPCPLHIATGHGLASQEIADAHGLLSAEAGRDDLLGLLHCEECPPSQTGPEEPLEPAPRLLQPPEDPDEDSDSPEWVEGASAEQEGSRSSSSSPEPWLETVPLVTPEEPPAGAQSPETLASYPAPQEVPGPCDHEDLLDGVIFGARYLGSTQLVSERNPPTSTRMAQAREAMDRVKAPDGETQPMTEVDLFVSTKRIKVLTADSQEAMMDHALHTISYTADIGCVLVLMARRRLARRPAPQDHGRRLYKMLCHVFYAEDAQLIAQAIGQAFAAAYSQFLRESGIDPSQVGVHPSPGACHLHNGDLDHFSNSDNCREVHLEKRRGEGLGVALVESGWGSLLPTAVIANLLHGGPAERSGALSIGDRLTAINGTSLVGLPLAACQAAVRETKSQTSVTLSIVHCPPVTTAIIHRPHAREQLGFCVEDGIICSLLRGGIAERGGIRVGHRIIEINGQSVVATPHARIIELLTEAYGEVHIKTMPAATYRLLTGQEQPVYL, MTNSNNRQSEYPVDPLFLDRWSPRAFDGSPMPKEHLLTILDAAHWAPSASNHQPWRFVYAHKDSEDWPLFVELLMEGNQKWAKNASVLLFVISRDHTISHEGEKKPSATHSFDAGAAWFSLAMQAHLLGYHAHGMGGIFKDRIVEKLDIPDGFKVEAGVAIGTLTDKSILPDDLAEREVPSKRVPLADVAFEGRFTGKAD, MKFIIEALKRVRERRPLVHNITNFVVMNTTANALLALGASPVMAHAEEELEEMIRLADAVVINIGTLDSGWRRSMVKATEIANELGKPIVLDPVGAGATKFRTRVSLEILSRGVDVLKGNFGEISALLGEEGKTRGVDSLEYGEEEAKKLTMNAAREFNTTVAVTGAVDYVSDGRRTFAVYNGHELLGRVTGTGCMVAALTGAFVAVTEPLKATTSALVTFGIAAEKAYEEAKYPGSFHVKLYDWLYRINENVIRTYAKVREVEL, MEYWHYVETTSSGQPLLREGEKDIFIDQSVGLYHGKSKILQRQRGRIFLTSQRIIYIDDAKPTQNSLGLELDDLAYVNYSSGFLTRSPRLILFFKDPSSKDELGKSAETASADVVSTWVCPICMVSNETQGEFTKDTLPTPICINCGVPADYELTKSSINCSNAIDPNANPQNQFGVNSENICPACTFANHPQIGNCEICGHRLPNASKVRSKLNRLNFHDSRVHIELEKNSLARNKSSHSALSSSSSTGSSTEFVQLSFRKSDGVLFSQATERALENILTEKNKHIFNQNVVSVNGVDMRKGASSHEYNNEVPFIETKLSRIGISSLEKSRENQLLNNDILFNNALTDLNKLMSLATSIERLYKNSNITMKTKTLNLQDESTVNEPKTRRPLLILDREKFLNKELFLDEIAREIYEFTLSEFKDLNSDTNYMIITLVDLYAMYNKSMRIGTGLISPMEMREACERFEHLGLNELKLVKVNKRILCVTSEKFDVVKEKLVDLIGDNPGSDLLRLTQILSSNNSKSNWTLGILMEVLQNCVDEGDLLIDKQLSGIYYYKNSYWPSHI

Soluble on expression in E. coli, not soluble:
MGSDKIHHHHHHVRFIMKTNLFTSLLKKCIYGLSWFFPRQGNKAVFGCYKNLFADNSKYLYLHWHKNKFMHVIWISGDASLVNALRKKGFIAYERWSLEGVYHALTARFYIYNSYIGDVNQWFASGSIKINLWHGSPLKRIEFDIDHGPLAHKYQSNSYWQKTWHSLLYHQEYVRPQLMLSPSPLVDRLFCSAFRLQKKQLLSCGNPRTDFYRRYPDKCQSINSKPDGTSYKKVILYAPSWRDANLSNTETVQSPYEKAFNWGVLSQFLVNSDCLFLLRLHPNERHYAKHFSAYPNVRDISSWEDVYGILHQVDLLLTDYSSLFIDVLPLNIPIVFYLFDHESYIKNSRNCYEYSQCLPQAGLIAYGFEELINILKNNTSKKQTETLHLAYTQLQKLYWQEMNEHSDCFELLERYICRRNLLKSPLNTQIS, MEHQTTRNVILITEGSLQSSLLKDVLETKLGINVLLITPENLASPFVRNQSISAIVLDYSVITDEVFARYMEFKTPNLTGTLEILINCDKSISTDELFVWGALAGIFYTSDDIQTLQTGIDKVLQGDMWFSRKFAQQYITHLRRHSRPINKNVPA, MAHHHHHHMDSQGPFLVIPTKRGAVPTLTPAQANAILEPSERILATSVFEAMDFVKPCIEAGMQLSTYCGLSGYKTVLTLRSSFQGLHASASSSDTAVAGDNERGRAVISFEKWRDVVKATRPTFAVAVHESLPLCEPLNKRRRVAATRSETWLANTEEASDLGCTILPSISAGCTHDGGYIDAVPRGENSYEFFQTLQALQLSPKKCTMCVAPSISVLLAAMVSNVSLLECPLPWTLAEKGVALLLPLEEATTTSPEPVVPLLDLNDNVYALDINPIAEGCDCFTCKRHCRAYLHHLLTVQEMNSDILLVMHNLAQVVLLVRAYRCASAPTREALVSRVASAL, MSLDETPTIHILWINAGLSCDGDSVALTAAMQPSIEEIVLGVLPGLPKIAVHWPLIDFECGPVGGSDTFIEWFFKGERGEIDPFVLVVEGSIPNESIKPEGYWCGFGDNPETGQPITTSEWIDRLAPKALAVVAIGTCATYGGIHAMAGNPTGAMGVPDYLGWDWKSQAGIPIVCVPGCPIQPDNFSETLTYLLYQAAGAAPMIPLDDKLRPTWLFGATVHEGCDRAGYYEQGQFALTYDSPKCLVKLGCWGPVVKCNVPKRGWMNGIGGCPNVGGICIACTMPGFPDKFMPFMDEPPGAKVSSSASGAYGAVVRKLRTLTARTVDKEPKWRHTGDRITTGYREGHHHHHH, MSAATYRKLTSANLLDPVRCRLLISRNRCRVTGVKVPNPLKKVSNFFWRYRAPQAAPGHANPAYFPEADNFED, MLMPEMDRRRMMMMAGFGALAAALPAPTAWADPSRPAAPAGPTPAPAAPAAATGGLLFHDEFDGPAGSVPDPSKWQVSNHRTPIKNPVGFDRPQFFGQYRDSRQNVFLDGNSNLVLRATREGNRYFGGLVHGLWRGGIGTTWEARIKFNCLAPGMWPAWWLSNDDPGRSGEIDLIEWYGNGTWPSGTTVHANPDGTAFETCPIGVDGGWHNWRVTWNPSGMYFWLDYADGIEPYFSVPATGIEDLNEPIREWPFNDPGYKVFPVLNLAVGGSGGGDPATGSYPQEMLVDWVRVF, MGSDKIHHHHHHMTKDDQKELGKTLWAIADQLRGSMNADDFRDYMLSFLFLRYLSDNYEAAAKKELGSDYPDAKTIGNSDKTPLSVWYASNPGDVAAFEQQMRRKAHYVIKPKYLWGNIVNLAKKQNHDLLDTLQQGFKHIEEDSFESEFQGLFSEINLASDKLGRKYDDRNAKLCSIISEIARGMALSAKTDSLGDAYEYLIGQFAAGSGKKAGEFYTPQEISNILSAIVTLDSQEPKTGPRGKLDSVFDFACGSGSLLLNIRNRMTNSGGSIGKIYGQEYNVTTYNLARMNMLLHGVKDTEFEIYHGDTLKNDWDWLRETNPAKKPRFDAVVANPPFSYRWEPGEAMAQDARFKNHGVAPKSAADFAFLLHGLQYLKDDGVMAIILPHGVLFRGGKEADIRRKLLDDGHIDTVIGLPANLFYSTGIPVCILVLKKCKKPDDVLFINAAGHFAKGKRQNQLTDEHIQRIVNTYQNRNKQDRYSRCVSMKEIADKDYNLNISRYVSTAEADKEIVLEAVHADLTAIESRLEESKKRHNAFLVELGLKPLP, MGILDHPSSSSGIQSGGGTFGIDWAKWFPPVTSRSFLSHYLPASGALSHTLYTVHLFSPNIISSLFPTGDLAVSNTILFNANVGLGFYVYFRRHLHRVNPWERVEFSVLSSTLFNFGSLLAAVLIKALIPAKSPTWLKSLTATVLSGYLLSRAAKYMGILDHRSSRGSVSPARSVLSRRQTASRSSHAAEVTPPPASYAPETPRSVASTSYYSPSELHLDTTSSVQLETPPQSHESGSFMPMTPSATEHSSSEFGQDLEDAGDRHENYRYLHSYALNNLNHSRPKKETILRRTTMNQKNQLATPQKQLRRSSETMAPMCFVTPEPSWKELDVGVYTPPPSRMDFTPQASKKLTKSSKSVKIIQKKSRRIPNEKDDFDRFLDAVQWHAPLILVPVAFGCWITGSVPILSPTLRFIFA, MFFRCCMKIVQIIGGLGNQMFQFAFYLALKEKYVNVKLDTSSFGAYTHNGFELDKVFHVEYLKASIRERIKLSYQGSEIWIRVLRKLLKRKKTEYVEPYLCFDENAISLSCDKYYIGYWQSYKYFTNIEAAIRGQFHFSKVLSDKNEFIKKQMQNSNSVSLHVRLGDYVNNPAYSNICTSAYYNKAINIIQSKVSEPKFFVFSDDTVWCKDHLKIPNCHIIDWNNKEESYWDMCLMTYCKHNIIANSSFSWWGAWLNTNPERIVIAPGKWINDDRVQVSDIIPSDWICVLEHHHHHH, MINIIGLGPGNLDYITKKGENLISTSDVLIGGKRNLESIKNFEGEKIVLDSNLREIIEYINNNKEKQISIIASGDPLIYGIGRYLSKNIDNKMLNMVSGISSLQYIFSKIYVDMNDVYITSSHGKVPDFDYILSHKKVCMVTDSKIGPKQISREIIDRNLNKIIVVGENLSYDNEKITIAKPEEIIRIDNFDMNVVVILDEE, MGILETLVLKEKINGTEKAVIFRELIKKEMELLNDYCAKNHLFPKDYRIEFCHLHNIKKVNIARLLTILKYYDPRFIEILMSTDPKVRTFIQYFMEFLEKHPYFEDVLEPQNLFGNWDYIRYKLKILFPQLTFEEIDRFKFKRKEFINYVKEKLGEPEELIEDKLNLATWYESVPYLELESEMTPGVHPDPVMTPEEWSFIKRHIKGRKNIIIRDPDTGKEKLVYVEVDIPDEELDKYYKNREGLKKLLMERYNIDESGAEQILRKAGWEATGWHIVPPVHTDVEVVYPEEEKKEEKKVEVKREPFDIMELAKHIRYLGGRELEMLNYYELVHDKVPEIHEKLHMFMRTKRRLLGKLFGIYYTVDPVMAEAILINDPENIELLKSLTISTGLRDKKFSIYDSSKVWNEIKRRVRFIFPEVSEEEIEKFKGKRSEFVTYLAQKLGKPEEYIDERLERAGWLRSEEIPAFIRHVGP, MGSDKIHHHHHHMPINSYENYVLSWRPVKERLTRPYYQSLVQQLEADILSGALQKNVKLPSQRELADYLDLNFTTIGQAYKHAMEKGLLYTNIGCGTFVSPNAFHSITISTNQVADHLIDLGLVSSFDMCNQRILPFIESVSKNAALNSLLNYRDPLGTHFQRATAAEWLQTQGVRTNAEEVAIVSGVQNGLAVTLAAAFSPGQRIAVDRYTYSNFIELAQLYHLEIVPIGYDSEGMDPEHLLQECKKKKIHGIFLMPACNNPIGFQMSSARRMTLAEIIQQEHLWVIEDDIHSFLTTYAQQAVLPTFQELLPQQTIYLAGMTKFVCTGLRIAYLVFPPLLRQEIERAIFNINVKTSGFDAEIVTQVLRSPVAKELVIEKLALTKQANDLFDTIFGLARPSNPLPYYRTIPLSTEKTAPQIEQEFLQNGVRLFHSSRFTVQNQPDAFLRISLASNQLEVLAKGLTIIQELLPTLNEKKGHSL, MHIRLTLPFYIYPFHFFRGSKMVKIPKSHPRYWSLLYREKIIRGMEEGITAKAGLIAHGRGEAFDYLIGERTIPPAEEAMKVAVAKLLLANHPVISVNGNVAALVPRETVELAKVTRAKLEVNLFYRTEERVKKIAEVLKKTGAKEVLGLNPTKRIPGLESERGKVEEDGIWKADVVLVPLEDGDRTEALVRMGKFVITVDLNPLSRSARMANVTIVDNIIRAYPRMIELAKEMRDYSREELEEIVNNYDNNKILSEVLLHIRRRLEELAKEGLEHHHHHH
